The source of these data is US7754689B2, “Finger-1 peptide analogs of the TGF-β superfamily” (Wyeth LLC, priority 2006, dated 2010).

Holding throughout (assay type): binding
One assay deals with T1, BMP-3 (Homo sapiens, UniProt P12645).
T1 construct: a propeptide fragment copurifies along with the mature protein; made in house; host or cells: CHO cells (conditioned medium)
T1 sequence (P12645 363-472): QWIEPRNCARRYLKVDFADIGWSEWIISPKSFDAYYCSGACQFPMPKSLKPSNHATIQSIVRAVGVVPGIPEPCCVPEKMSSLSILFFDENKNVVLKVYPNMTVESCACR
Description: Affinity column chromatography, capture and elution of BMP-3. The method, then: (§1) BMP-12 was immobilized on NHS-activated Sepharose™ beads at a ratio of about 20 mg:4 mL and the resulting media combined with water or neutral saline buffer to prepare a column. CHO-conditioned media augmented with 1.2 M NaCl was loaded onto the column. In some cases, the media was preconcentrated with respect to BMP before loading. The column was washed with 15 CV (column volumes) of 1.2 M NaCl in 40 mM Na2HPO4 at pH 7.2, followed by 0.5 M arginine/0.5 M NaCl in 20 mM Tris at pH 7.5 (15 CV) and a low salt wash (50 mM ammonium acetate at pH 7, 15 CV). […] Finally, the column was eluted with 5CV of the acetic acid solution with 6M guanidine hydrochloride (GuHCl).
The eluate was analyzed using HPLC.
4 mL of the resulting resin (1.6×2.0 cm) was used to prepare a column. The column was loaded with BMP-3 and eluted as in Example 1.

The next assay has as its target T2, BMP-12 (Homo sapiens, UniProt Q7Z4P5).
T2 sequence (Q7Z4P5 322-450): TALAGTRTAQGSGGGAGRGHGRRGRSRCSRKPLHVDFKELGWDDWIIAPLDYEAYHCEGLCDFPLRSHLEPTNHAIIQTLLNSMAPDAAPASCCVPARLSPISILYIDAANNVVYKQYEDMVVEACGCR
Description: Affinity column chromatography, capture and elution of BMP-12. The method, then:
as §1
BMP-12 was loaded and eluted from a BMP-12 affinity column as in Example 1.
BMP-12 was purified using a column prepared with the BMP-12 wild type peptide described in Example 7.

In a further assay the test system is BMP-3 and BMP-12. Description: HPLC columns of BMP affinity resins loaded with BMP-3 and BMP-12. The note with it: columns loaded with BMP-3 and BMP-12. The text has this: These columns were used loaded with BMP-3 and BMP-12. […] In some cases, size exclusion or reverse phase chromatography techniques were employed to enhance purification.
[1] abbreviates: washes, then gradient to 50 mM acetic acid pH 3, then 6M GuHCl.

B1: BMP-12: Bone Morphogenic Protein, member of the TGF-β superfamily; tested in solution and immobilized on Sepharose beads as affinity ligand (protein)
chain: TALAGTRTAQGSGGGAGRGHGRRGRSRCSRKPLHVDFKELGWDDWIIAPLDYEAYHCEGLCDFPLRSHLEPTNHAIIQTLLNSMAPDAAPASCCVPARLSPISILYIDAANNVVYKQYEDMVVEACGCR
With B1, in the assay with BMP-3 (CHO-conditioned media with 1.2 M NaCl (high salt) load), the “capture of BMP-3 by column with immobilized ligand” value was “effectively captured”. Moreover, the “elution of BMP-3 from column with immobilized ligand” value with BMP-3 (setting [1]) is on record as “eluted with acetic acid”. The “capture of BMP-12 by column with immobilized ligand” value with BMP-12 (high salt / high ionic strength load) is reported as “effectively captured”. The “elution of BMP-12 from column with immobilized ligand” value with BMP-12 (setting [1]) was “eluted with acetic acid and guanidine”. Moreover, in the assay with BMP-3 and BMP-12, the “effectiveness as affinity ligand for reverse phase HPLC” value was “equally effective”.
